Reference: paper PMC4691852 (Molecular cell, 2013)
Read-outs that look alike come from different tables or passages of the source.

Tests used:
crystal structure [1] = biological target: the molecule itself; experiment: crystal structure
crystal structure [2] = biological target: the molecule itself; experiment: crystal structure; remark: listed apart in the source
MazF = biological target: T1, MazF (Bacillus subtilis, UniProt P96622 1-116); experiment: ITC
T1 sequence: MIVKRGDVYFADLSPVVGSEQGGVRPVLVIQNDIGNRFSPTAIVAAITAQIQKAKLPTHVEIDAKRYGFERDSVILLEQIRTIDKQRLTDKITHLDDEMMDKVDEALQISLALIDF

B1: Bacillus subtilis MazF (toxin, mRNA interferase), expressed alone from pET-SUMO (enzyme)
chain: MIVKRGDVYFADLSPVVGSEQGGVRPVLVIQNDIGNRFSPTAIVAAITAQIQKAKLPTHVEIDAKRYGFERDSVILLEQIRTIDKQRLTDKITHLDDEMMDKVDEALQISLALIDF
Q: B1 was tested. Which “stoichiometry N” value (crystal structure [1]) did it give?
A: 2

B2: Bacillus subtilis MazF coexpressed with MazE from modified pRSFDuet-1 (enzyme)
chain: MIVKRGDVYFADLSPVVGSEQGGVRPVLVIQNDIGNRFSPTAIVAAITAQIQKAKLPTHVEIDAKRYGFERDSVILLEQIRTIDKQRLTDKITHLDDEMMDKVDEALQISLALIDF
modifications: selenomethionine-labelled (for the crystals)
Q: How did the “stoichiometry N” value (crystal structure [2]) turn out when B2 was run?
A: 2

Q: With UUUACAUAA (ssRNA, 2'-deoxyuridine at position 3 (other residues ribo)) [uncleavable 9-mer RNA UUdUACAUAA] as the binder, how does the Kd (MazF) read?
A: 64 nM

B3: Bacillus subtilis MazE (antitoxin) coexpressed with MazF from modified pRSFDuet-1 (natural protein)
chain: MSESSARTEMKISLPENLVAELDGVAMREKRSRNELISQAVRAYVSERTTRHNRDLMRRGYMEMAKINLNISSEAHFAECEAETTVERLVSGG
modifications: selenomethionine-labelled (for the crystals)
Q: Which “stoichiometry N” value (crystal structure [2]) does the source give for B3 here?
A: 2
